Experimental data as given in the Human Domainome abundance scans (Beltran et al. 2025).

B1: Serine/threonine-protein kinase A-Raf, residues 21 to 89; numbered along this chain, P10398 (parent)
chain: VKVYLPNKQRTVVTVRDGMSVYDSLDKALKVRGLNQDCCVVYRLIKGRKTVTAWDTAIAPLDGEELIVE

Variants of: B1
Experiment: abundance fitness (aPCA) (normalised: wild type 0, dead -1); higher = more abundant; growth selection in yeast, the domain comes from the species named
Details: Homo sapiens

Abundance fitness of substitutions, site by site:
L61: N -0.371; R -0.108; C -0.367; A -0.168; K -0.142; T -0.23; W -0.297; M 0.017; Q -0.088; S -0.156; D -0.365; H -0.312; P -0.631; G -0.176; I -0.206; E -0.25; V -0.112
G63: C -0.055; E -0.486; P -0.533; H -0.63; W -0.78; F -0.279; V -0.097; T -0.128; K -0.722; M -0.269; A -0.142; N -0.265; S -0.107; R -0.799; D -0.187; Y -0.376; Q -0.466
E64: A -0.206; N -0.026; F -0.867; L -0.01; S -0.112; H -0.339; M -0.085; V -0.259; G -0.25; T -0.006; C -0.571; W -0.215; K -0.295
E65: V -0.077; T -0.01; L -0.349; R -0.385; F -0.607; D -0.136; G -0.294; M -0.34; C -0.122; P -0.26; Y -0.305; S -0.124; Q -0.184; A -0.044; K -0.122; I -0.088; W -0.515
E69: I -0.81; K -0.6; L -0.889; A -0.497; P -0.693; V -0.43; R -0.635; Y -0.809; Q -0.6; D -0.248; S -0.463; N -0.777; F -0.884; M -0.682
P60: M 0.084; R -0.067; W -0.199; T 0.027; Q 0.121
